Paper PMC10502012 (2023)
No end group written: not given here. PEG = not defined here; Cy5 = Cy5 dye

target: chicken PHT1 (purified, wild type) (chicken); assay: MST
Sequence (chain, as listed by the source): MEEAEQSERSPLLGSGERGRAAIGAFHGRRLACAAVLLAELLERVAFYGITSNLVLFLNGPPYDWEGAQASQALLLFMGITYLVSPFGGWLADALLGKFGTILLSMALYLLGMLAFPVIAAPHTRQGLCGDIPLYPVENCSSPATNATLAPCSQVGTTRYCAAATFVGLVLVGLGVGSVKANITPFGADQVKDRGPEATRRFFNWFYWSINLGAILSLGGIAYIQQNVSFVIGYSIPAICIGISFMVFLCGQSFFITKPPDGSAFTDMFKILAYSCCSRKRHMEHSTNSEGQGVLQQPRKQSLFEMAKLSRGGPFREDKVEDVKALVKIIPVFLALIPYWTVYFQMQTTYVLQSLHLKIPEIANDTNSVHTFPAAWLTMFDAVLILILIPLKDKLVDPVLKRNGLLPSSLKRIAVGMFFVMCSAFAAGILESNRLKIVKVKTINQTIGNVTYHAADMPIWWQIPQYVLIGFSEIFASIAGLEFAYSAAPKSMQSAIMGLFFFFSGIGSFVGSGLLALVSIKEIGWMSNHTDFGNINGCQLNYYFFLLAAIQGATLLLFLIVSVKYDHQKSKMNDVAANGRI

Binder | Kd [nM]
MLSEGYLYRIAYL-{PEG-Cy5} (reading uncertain) [fluorescently labeled TASL_(1-13) peptide] | 361

target: chicken PHT1 (purified, wild type) (chicken); assay: not given

Binder | Kd [nM]
MASEGYLYRIAYL [TASL 1-13 L2A] | 7280
MLSEGYAYRIAYL [TASL 1-13 L7A] | 310
MLSEGYLYRIAY [TASL 1-12] | 1740
SEGYLYRIAYL [TASL 3-13] | 7630
MLSEGALYRIAYL [TASL 1-13 Y6A] | 1530
MLSEGYLYRIAYLGSGS [TASL 1-13-GSGS] | 580
EGYLYRIAYL [TASL 4-13] | 10500
MLSEGYLYRIAYLGSGSGS [TASL 1-13-GSGSGS] | 410
ALSEGYLYRIAYL [TASL 1-13 M1A] | 15400
MLSEGYLYRIAYLGS [TASL 1-13-GS] | 710
LSEGYLYRIAYL [TASL 2-13] | 9110
MLSEGYLARIAYL [TASL 1-13 Y8A] | 2120
MLSEGYLYRIAYLA [TASL 1-14 C14A] | 400
MLAEGYLYRIAYL [TASL 1-13 S3A] | 690
MLSEGYLYAIAYL [TASL 1-13 R9A] | 3360

target: chicken PHT1 (purified, wild type) (chicken); assay: not given; remark: another data set of the same source

Binder | Kd [nM]
MLSEGYLYRIAYLCE [TASL peptide with a length of 15 residues] | 1760
MLSEGYLYRIAYLCEDSELCT [TASL peptide with a length of 21 residues] | 4050
MLSEGYLYRIAYLCEDS [TASL peptide with a length of 17 residues] | 1350
